{
  "source": "patent US8404239B2",
  "about": "“Anti-Notch2 NRR antibodies” (Genentech, Inc., priority 2008, dated 2013)",
  "key": {"[1]": {"target": "T1, myc-Notch2 on K1-CHO cells (Homo sapiens, UniProt Q04721)", "T1 construct": "either the Notch1 or Notch2 extracellular domain and trans-membrane domains were N-terminally myc-tagged; expressed in transfected cells; host or cells: CHO-K1 (Tet-inducible, doxycycline)", "T1 sequence (Q04721 26-1677 limits assumed)": "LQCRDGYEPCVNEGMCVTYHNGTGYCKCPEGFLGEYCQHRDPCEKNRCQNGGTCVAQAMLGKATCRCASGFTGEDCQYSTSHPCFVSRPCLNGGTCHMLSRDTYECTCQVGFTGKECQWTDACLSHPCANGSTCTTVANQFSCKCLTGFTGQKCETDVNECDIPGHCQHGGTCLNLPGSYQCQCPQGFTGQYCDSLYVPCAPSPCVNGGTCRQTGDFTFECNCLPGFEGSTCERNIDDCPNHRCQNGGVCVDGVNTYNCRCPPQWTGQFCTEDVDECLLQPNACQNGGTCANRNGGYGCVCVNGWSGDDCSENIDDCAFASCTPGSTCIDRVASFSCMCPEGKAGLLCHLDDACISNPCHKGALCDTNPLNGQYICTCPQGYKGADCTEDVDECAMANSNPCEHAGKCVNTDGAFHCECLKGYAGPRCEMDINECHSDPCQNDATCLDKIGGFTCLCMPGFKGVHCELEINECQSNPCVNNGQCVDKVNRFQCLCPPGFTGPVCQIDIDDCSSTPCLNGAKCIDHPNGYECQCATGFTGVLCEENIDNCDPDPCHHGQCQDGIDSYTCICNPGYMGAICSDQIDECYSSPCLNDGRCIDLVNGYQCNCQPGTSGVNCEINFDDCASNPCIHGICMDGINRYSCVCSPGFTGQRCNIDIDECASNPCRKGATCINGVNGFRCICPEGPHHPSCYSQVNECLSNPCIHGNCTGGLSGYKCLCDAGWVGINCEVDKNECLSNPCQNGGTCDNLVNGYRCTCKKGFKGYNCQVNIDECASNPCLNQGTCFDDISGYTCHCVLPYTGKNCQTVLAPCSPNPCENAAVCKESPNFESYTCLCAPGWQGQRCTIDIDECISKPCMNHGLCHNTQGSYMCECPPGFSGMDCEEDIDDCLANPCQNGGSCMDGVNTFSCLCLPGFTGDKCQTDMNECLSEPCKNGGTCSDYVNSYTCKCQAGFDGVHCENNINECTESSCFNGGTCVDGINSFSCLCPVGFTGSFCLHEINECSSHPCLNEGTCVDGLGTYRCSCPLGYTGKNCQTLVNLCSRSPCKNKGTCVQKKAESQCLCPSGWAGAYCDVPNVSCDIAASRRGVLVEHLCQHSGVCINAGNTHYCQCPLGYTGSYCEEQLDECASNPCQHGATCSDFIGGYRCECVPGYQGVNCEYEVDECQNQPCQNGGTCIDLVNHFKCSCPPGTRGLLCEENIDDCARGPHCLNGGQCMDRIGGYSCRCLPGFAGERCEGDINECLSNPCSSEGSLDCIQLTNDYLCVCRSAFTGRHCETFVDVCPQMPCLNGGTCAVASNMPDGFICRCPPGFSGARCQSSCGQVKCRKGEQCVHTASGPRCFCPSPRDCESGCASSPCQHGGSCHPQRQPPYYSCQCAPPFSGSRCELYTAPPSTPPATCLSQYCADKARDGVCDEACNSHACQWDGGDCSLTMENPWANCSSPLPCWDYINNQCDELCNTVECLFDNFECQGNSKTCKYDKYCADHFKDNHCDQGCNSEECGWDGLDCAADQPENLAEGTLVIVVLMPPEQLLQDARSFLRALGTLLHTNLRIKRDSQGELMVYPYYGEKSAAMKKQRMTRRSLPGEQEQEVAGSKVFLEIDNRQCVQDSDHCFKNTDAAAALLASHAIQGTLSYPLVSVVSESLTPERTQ", "experiment": "FACS binding to K1-CHO cells expressing N-myc-Notch2", "format": "cell-based", "conditions": "doxycycline induced", "text": "The N-myc-Notch transgenes were expressed under control of the inducible tet promoter; bottom row, control expression in the absence of induction with doxycycline (−Dox); top row, induced expression following addition of doxycycline (+Dox); note that the K1-CHO line endogenously expresses Notch2, which is detected by anti-NRR2 in the presence and absence of doxycycline (for example, compare panels 7 and 10).\nExpression plasmids were made in which either the Notch1 or Notch2 extracellular domain and trans-membrane domains were N-terminally myc-tagged and expressed under the control of a Tetracycline Response Element (TRE) upstream of a minimal CMV immediate early promoter. These plasmids were stably transfected into CHO-K1 cells (Clonetech), engineered to express a transactivator protein in the presence of Doxycycline that binds to and activates the TRE in the transfected plasmid. Cells were treated with […] doxycycline or vehicle for 48 hrs, and then stained with anti-NRR, anti-myc (9E10, Millipore) or E25 control antibodies and either goat anti-human Alexa 488 or Alexa 647 secondary antibodies (Invitrogen). After staining, cells were run on a FACScalibur machine (BD Biosciences) and 15000 events were collected and range gates were drawn to assess positively and negatively stained populations."}, "[2]": {"system": "Notch2 signaling", "experiment": "Co-culture Notch reporter assay, Notch2 signaling (U87MG cells + Jag1 cells)", "format": "cell-based", "procedure": "NIH-3T3 cells stably transfected with Jag1 were used to induce Notch signaling in NIH-3T3 cells stably transfected with Notch1 (except for “−Jag1”, which used untransfected NIH-3T3 cells in place of the Jag1-expressing cells). […] NIH-3T3 cells stably transfected with Jag1 were used to induce Notch signaling in U87MG cells, which express high levels of Notch2. The assay was performed as described in (A). […] The assay was performed as in (A) except that the receptor-expressing cells were generated by transient transfection of plasmids expressing the indicated Notch1 receptors.\nCo-culture assay in U87MG cells, as described in FIG. 10B.\nNIH-3T3 cells either stably transfected with Notch 1 or transiently transfected with plasmids containing other Notch receptors were co-transfected with a Notch-responsive TP-1 (12× CSL) Firefly luciferase reporter and a constitutively active Renilla Luciferase reporter (pRL-CMV, Promega) to control for transfection efficiency. Cells are allowed to recover from the transfection from 6 hours to overnight. Treatments of antibodies and NIH-3T3 cells stably transfected with ligand are used to stimulate the receptor cells. After 20 hours, firefly and Renilla luciferase are measured with Dual Glo Luciferase Assay system (Promega). Eight replicates were analyzed for each condition by dividing the Firefly signal by the Renilla signal to control for transfection efficiency. The mean and standard deviation were calculated and values were normalized to calculated values for co-culture stimulated with NIH-3T3 cells without ligand transfected."}, "[3]": {"system": "thymus, CD4+/CD8+ double-positive T cells", "experiment": "In vivo thymus / T cell development in Balb/c mice", "parameters": "species or system mouse", "conditions": "5 mg/kg four times every four days", "procedure": "Balb/c mice were injected four times every four days with 5 mg/kg of α-gD isotype control, α-NRR1 or α-NRR2, and cells were harvested from the thymus or spleen on day 13, one day after the fourth dose. (A) Thymus weight measurements. Thymus weights (in mg) are expressed relative to total body weight (in g). Values represent the mean plus standard deviation for three mice per group. (B) Thymus cell count. (C) CD4 and CD8 FACS to identify CD4^+/CD8^+ double-positive T cells. Numbers represent the percentage of thymic cells in the double-negative, single-positive and double-positive populations. […] (D) CD21 and CD23 FACS to identify marginal zone B cells. Numbers represent the mean percentages ±standard deviation (from three animals) of cells within the MZB gate, which is boxed; p values are also noted; representative dot plots from one of the three animals in each group are graphed.\nSplenocytes were isolated from the mice and were stained for FACS with B220-PerCP, CD23-PE and CD21-FITC (BD Biosciences) as previously described (Saito, et al., Immunity, Vol. 18, 675-685, May 2003)."}, "[4]": {"experiment": "Total body weight change in antibody-dosed mice", "format": "in vivo, mouse", "text": "(A) Total body weight change (mean+/−standard deviation) vs. time. […] Arrows mark the days of dosing. (B) Immunohistochemical analyses of small intestines. […] In each row as indicated, staining is shown for haemotoxylin and eosin (H & E), Alcian Blue for mucin and to mark secretory goblet cells, lysozyme to mark Paneth cells, Ki-67 for proliferation and Hes1 as a Notch downstream target. See FIGS. 19 and 20 for analyses of the large intestine at day 7 and of the small intestine at day 2, respectively. Bar=40 μm. (C) Comparison of Notch1- versus Notch2-specific inhibition on small intestinal cell differentiation. Small intestines from the study described in (A) were prepared for Alcian Blue and Ki-67 one day after the final dosing with α-gD, α-NRR1 or α-NRR2, as indicated. Bar=50 μm.\n(B) Immunohistochemical analyses of small intestines from mice treated as in (A), using Alcian Blue for mucin to mark secretory goblet cells."}, "[5]": {"system": "SK23 melanoma cells", "experiment": "Cell Titer Glo viability of melanoma cell line SK23", "format": "cell-based, human", "conditions": "six days, antibodies 20 mg/ml, DAPT 5 μM, ± Jagged-1", "procedure": "(§1) Human melanoma cell lines SK23 and LOX-IMVI were plated in medium containing 2% FBS at low density (4000 cells/well for SK23, 2500 cells/well for LOX-IMVI) in 96 well plates that were coated without (−jag-1) or with Jagged-1 ligand (+jag-1) (R&D Systems, Minneapolis, Minn.). […] An equal volume of DMSO served as the vehicle control, whereas an equal concentration of anti-gD HuB6 phage antibody served as the isotype control antibody. Cell Titer Glo assays (Promega, Madison, Wis.) were performed six days after plating. […] In FIGS. 25A and 25B, cell viability (y-axis) is expressed relative to the values from the DMSO vehicle, −jag-1 control wells."}, "[6]": {"system": "LOX-IMVI melanoma cells", "experiment": "Cell Titer Glo viability of melanoma cell line LOX-IMVI", "format": "cell-based, human", "conditions": "six days, antibodies 20 mg/ml, DAPT 5 μM, ± Jagged-1", "procedure": "as §1"}},
  "data": [
    {"molecule": "anti-NRR2: affinity matured form of Antibody D, phage library-derived human anti-Notch2 NRR monoclonal antibody (antibody, V domains shown) VH: EVQLVESGGGLVQPGGSLRLSCAASGYTFSSYGMSWVRQAPGKGLEWVSYIYPYSGATYYADSVKGRFTISADTSKNTAYLQMNSLRAEDTAVYYCARHSGYYRISSAMDVWGQGTLVTVSA VL: DIQMTQSPSSLSASVGDRVTITCRASQNIKRFLAWYQQKPGKAPKLLIYGASTRESGVPSRFSGSGSGTDFTLTISSLQPEDFATYYCQQYYRSPHTFGQGTKVEIKR", "values": [
      {"measurement": "binding to myc-Notch2 cells", "setting": "[1]", "value": "significantly bound"},
      {"measurement": "effect on Notch2 reporter signaling", "setting": "[2]; Jag1-induced, DAPT 5 μM", "value": "inhibition of Notch2 signaling"},
      {"measurement": "inhibition of signaling induced through Jag1, Jag2, D111 and D114", "setting": "[2]; all Notch ligands tested", "value": "inhibited signaling"},
      {"measurement": "total number of cells in the thymus", "setting": "[3]; day 13", "value": "not"},
      {"measurement": "percentage of thymic cells in the CD4+/CD8+ population", "setting": "[3]; day 13, FACS", "value": 80, "unit": "%"},
      {"measurement": "total body weight change", "setting": "[4]; first experiment (FIG. 15A)", "value": "weight gains"},
      {"measurement": "effect on weight", "setting": "[4]; second experiment, 5 mg/kg (FIG. 24A)", "value": "little or no effect"},
      {"measurement": "cell viability", "setting": "[5]", "value": "decrease in viability"},
      {"measurement": "cell viability", "setting": "[6]", "value": "decrease in viability"}
    ]}
  ]
}
